assay: yeast display, Sf9 membrane polyspecificity reagent, FACS + sequencing; frameworks hold sequencing errors
In short: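 Sorting gates, low and high (top ~1%), were placed on anti-HA fluorescence to track expression and on streptavidin fluorescence to track reagent binding. A clone's polyreactivity label is taken from the gate it came out of. The reagent was 10% biotinylated, detergent-solubilized Sf9 membrane, applied for 1 hour at 4 °C to galactose-induced yeast display cells.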

Row | Sequence | polyreactivity (PSR sort gate)
1 | QVQLVESGGGLVQAGGSLRLSCAPSGYIFPEYVMGWYRQSPGKERELVAVITWDGTSTYADSVKGRFTISRDNAKNTVYLQMNSLIPVDTAVYYCAADTNYYVDTAGYGDGLDSWGQGTQVTVSS | low polyreactivity
2 | QVQLVESGGGLVQAGGSLRLSCAPSRRIFSIYALGSYRQAPGKESELVAAIRWSGGSTYYADSVKGRFTISRDKEKNTVYLQMNSLTPEDTAVYYCNRYYQSYYGWTGPYGYWGQGTQVTVSS | high polyreactivity
3 | QVQLVESGGGLVQAGGSLRLSCAPSRSTFWRYAMGWYRQAPGKERELFARISWSAGSTYYADSVKGRFTISRDNAKNTVYLQMNRLKPEDSAVYYCAAQPYKYSGRYQSKPYLLLYDYWGQGTQVTVSS | high polyreactivity
4 | QVQLVESGGGLVQAGGSLRLSCASSGFIFRHYAMGWYRQAPGKARELVAVINWSGSSTYYADSVKGRFTISRDNAKNTVYLQMNSLKPEDTAVYYCAVRSLRVDKYGYWGQGTQVTVSS | high polyreactivity
5 | QVQLVESGGGLVQAGGSLRLSCASSGFNFVYYSMGRYRQAPGKEREFVAAITERGGSTDYADSVKGRFTISRDHAKNTVYFQMNSLKPEDTAVYYCIARDVTLWDDVYQQDGSGYWGQGTQVTVSS | low polyreactivity
6 | QVQLVESGGGLVQAGGSLRLSCASSGFTFIYYAMGWYRQAPGKERELVAAISGSGSTYYADSVKGRFTISRDNAKNTVYLQMNSLKPEDTAVYYCAADVTGGRKYDYWGQGTQVTVSS | low polyreactivity
7 | QVQLVESGGGLVQAGGSLRLSCASSGFTFRYYTMGLYRQAPGKERELVASITWRGGSTYYADSVKGRFTISRDNAKNTVYLQMNCLKPEDTAVYYCNAERPYQYYPGIYRWYYYWGQGTQVTVSS | low polyreactivity
8 | QVQLVESGGGLVQAGGSLRLSCASSGFTFYTNDMGWDRQAPGKERELVAAITWSGGSTYYADSVKGRFTISRDNAKNTVYFQMNSLKPEDTAVYYCAASIGQVTQRRYGTRYYYWGQGTQVTVSS | high polyreactivity
9 | QVQLVESGGGLVQAGGSLRLSCASSGFTLVGYAMGWYRQAPGKERELVAAISYRGGSTYYADSVKGRFTISRDNAKNTVYLQMNSLKPEDNAVYYCAATYQGSSRSRGYWGQGTQVTVSS | high polyreactivity
10 | QVQLVESGGGLVQAGGSLRLSCASSGIIFAQYTMGWYRQEPGKERELVAAINRNGGSTYYADSVKGRCTISRDNAKHTVYLQMNSLKPEDTAVYYCTKDIERYVRIYDSWGQGTQVTVSS | low polyreactivity
11 | QVQLVESGGGLVQAGGSLRLSCASSGIIYNQNTMGWYRQAPGKERELVAAITFSGGRTSYADSVKGRFTISRDNAKNTFYLQMNSLKPEDSAVYYCNKALWGLYGYWGHGTQVTVSS | low polyreactivity
12 | QVQLVESGGGLVQAGGSLRLSCASSGLTFALYAMGWYRQAPGKEREFVAAITGSGGSTYYADSVKGRFTISRDNAKHTVYLQMNSLKPEYTAVYYCNKLFYRWRIVDKYYYWGQGTQVTVSS | high polyreactivity
13 | QVQLVESGGGLVQAGGSLRLSCASSGLTFGGYTMGLSRQAPGKERELVAAITSGGSTYYADSVKGRFTISRDNAKNTVYLQMNSLKPEDTAVYYCAARVRGWPVSKFGYWGQGTQVTVSS | high polyreactivity
14 | QVQLVESGGGLVQAGGSLRLSCASSGLTSYSAMGWYRQAPGKERELGAAIDGSDGNTYYADSVKGRFTISRDNAMNTVYLQMKSLKPEDTAVYYCNAETVRYWWSWENDYWGQGTQVTVSS | high polyreactivity
15 | QVQLVESGGGLVQAGGSLRLSCASSGNIFDIYAMGWYRQAPGKERELVAAITSSGGSTYYADSVKGRCTISRDNAKNTVYLQMNSLKPEDTAVYYCNAVSLVQKGDYWGQGTQVTVSS | high polyreactivity
16 | QVQLVESGGGLVQAGGSLRLSCASSGNIFDRYAMGRYRPAPGKERELVAGITWSGGSTNYADSVKGRFTISRDNAKNTVYLQMNSLKPEDTAVYYCGQANYYWGQGSQVTVSS | low polyreactivity
17 | QVQLVESGGGLVQAGGSLRLSCASSGNTFIENAMGWYRQAPGKERELVAAIDTGGSTYYADSVKGRFTISRDNAKNTVYLQMNSLKPEDSAVYYCTAVGLYLYRYIFGYLGKIGPGYDYWGQGTQVSVSS | low polyreactivity
18 | QVQLVESGGGLVQAGGSLRLSCASSGPIFVYKVKGWYRQAPGKERELVAAISWGTGSTYADSVKGRFTISRDNAKNTVYLQMYSLKPEDTAVYYCAAESFIPPYDHWGQGTQVTGSS | low polyreactivity
19 | QVQLVESGGGLVQAGGSLRLSCASSGRIFDGNAMGWYRQAPGKERELVAAISWTGGSTYYADSVKGRFTISRDNAKNTVYLQMYSLKPVDTAVYYCAADSGWWLDQWSWYDYWGLGTQVTVSS | low polyreactivity
20 | QVQLVESGGGLVQAGGSLRLSCASSGRIFDSNTMGWYRQAPGKERELVAAINWSDGSTYYADSVKGRFTISRDNAKYTVFLQMNSLKPEDTAVYYCNAGARRYLYDYWVQGTQVTVSS | low polyreactivity
21 | QVQLVESGGGLVQAGGSLRLSCASSGRIFGGYAMGWYRQAPGTELELVAAISSGGSTYYADSVKGRFTISRDNAKNTVYLQMNSLKPEDTAVYYCYAYYPWRWGSYPFDYWGQGTQVTVSS | high polyreactivity
22 | QVQLVESGGGLVQAGGSLRLSCASSGRIFSWYTMGWNRQAPGKVSELVPVITSGGTTKYADSEKGRFTISRDNAKNTVYLQMNSLKPEDTAVYYCNVAGRDYAVRWGSFDYWGQGTQVTVSS | low polyreactivity

Row | Sequence | polyreactivity (PSR sort gate)
23 | QVQLVESGGGLVQAGGSLRLSCASSGRIFWRNAMGWYRQAPGKERELVAAITSGGRTNYADSVKGRFTISRDNAKNPVYLQMNSLKPEDTAVYYCNALWRGRYGYWGQGTQVTVSS | high polyreactivity
24 | QVQLVESGGGLVQAGGSLRLSCASSGRIFWTYAMGWYRQAPGKERELVAAITSGGSTYYADSVKGRFTISRDKAKNTVYLQMNSLKPEDTAVLYCAATSYYYNFLEHDYWGQGTQVTVSS | high polyreactivity
25 | QVQLVESGGGLVQAGGSLRLSCASSGRIFYYNTMGWYRQAPGKERELVAAINWSGTSTYYADSVKGRFTISRDNAKNTVYLQMNSLKPEDTAVYYCAAYYRYRVTYDYYYWGQGTQVTVSS | high polyreactivity
26 | QVQLVESGGGLVQAGGSLRLSCASSGRNFGYDGMGWYRQAPGKERELVAAITYRGGSTYYADSVKGRFTISRDNAKNTVYLQMNSLKPEDTAVYYCAADGYSHYRYLYDYWGQGTQVTVSS | low polyreactivity
27 | QVQLVESGGGLVQAGGSLRLSCASSGRNFRGYAMGWYRQAPGKEREFVAAITKNGGSTYYADSVKGRFTISRDNAKNTVYLQMNSLKPEDTAVYYCAVRAWDPYTGKSDYWGQGTQVTVSS | low polyreactivity
28 | QVQLVESGGGLVQAGGSLRLSCASSGRTFGINAMGWYRQAPGKERELVAVISFGDGGTYYADSVKGRFTISRDNAKNTVYLQMNSLNPEDSAVYYCATDYQSTSVWGGHFVINPYDYWGQGTQVTVSS | low polyreactivity
29 | QVQLVESGGGLVQAGGSLRLSCASSGRTFNPYAMGWYRQAPGKERELVAAISRSGGGTYYADSVKGRCTISRDNAKNTVYLQMNSLKPEDTAVYYCNADRATCWEQWWYDNWGQGTQVTVSS | low polyreactivity
30 | QVQLVESGGGLVQAGGSLRLSCASSGRTFSYYALGWSRQAPGKERELVAAITSGGSTYYADSVKGRFTISRDNAKNTVYLQMNSLKPEDTAVYYCAADPGDDYWGQGTQVTVSS | low polyreactivity
31 | QVQLVESGGGLVQAGGSLRLSCASSGRTFSYYAMGWYRQAPGKERELVAAISTSGGSTYYADSVKGRFTISRDNAKNTVYLQMNSLKPEDTAVYYWAASPYLRFLYGGFGYWGQGTEVTVSS | high polyreactivity
32 | QVQLVESGGGLVQAGGSLRLSCASSGRTSLNYAMGWYRQAPGKDRELVAAITSGGGGTYYADSVKGRFTISRDNAKNTVYLQMYRLKPEVTALYYCGAKFPARRKLSKVGFDYWGQGTQVSVSS | high polyreactivity
33 | QVQLVESGGGLVQAGGSLRLSCASSGSIFEANAMGWYRQAPGIESELVAAISTTGGNTYYADSVKGRFTISRDNAKNTVYLQMNSLKPEDTAVYYCAADPSQPRIDSSNYDYWGQGTQVTVSS | low polyreactivity
34 | QVQLVESGGGLVQAGGSLRLSCASSGSIFEGYVMGWYRQAPGKERELVAAITTGGGSTYYADSVKGRFTISRDNAKNTVYLQMTSLKPEDTAVYYCAKDYWFGYEYWGQGTQVTVSS | low polyreactivity
35 | QVQLVESGGGLVQAGGSLRLSCASSGSIFFGYGMGWYRQAPGKERELVATITTSGGTYYADSVKGRFRISRDNAKNTDYLQMNSLKPEDTAVYYCAATAAALDGNTIMYYWGQGTQVTVSS | low polyreactivity
36 | QVQLVESGGGLVQAGGSLRLSCASSGSIFSSNTMGWYRQAPGKERELVAAITVSGGRTYYADSVKGRFTISRDNAKNTVYLQMNSLKPEDTAVYFCAARYANTYRTETSYPRYYSWGQGTHVTVSS | high polyreactivity
37 | QVQLVESGGGLVQAGGSLRLSCASSGSIFWQNTMGWYRQAPGKERELVATITSAGSTYYADSVKGRFTISRDNAKNTVYLQMNSLKPEDTAVYYCAKGHQPGHVFHPEYGYDYWGQGTQVTVSS | low polyreactivity
38 | QVQLVESGGGLVQAGGSLRLSCASSGSIFYGYAMGWYRQAPGKERELVAAINNSGVSTYYADSVQGRFTISRDNAKNTVYLQMNSLKPEDTAVYYCNKAGAYPYHYDYWGQGTQGTVSS | low polyreactivity
39 | QVQLVESGGGLVQAGGSLRLSCASSGSIFYNNAMGWYRQAPGKERELVAAIRSTGTRTYYSDSVKGRFTISRDTAKNTVYLQMNSLKPEDTAVYYCAVGDYGLWSYDYWGQGTQVTVSA | low polyreactivity
40 | QVQLVESGGGLVQAGGSLRLSCASSGSILVHYAMGRYRQAPGKERELFAAISRGGSTNYADSVKGRFTISRDNAKNTVYLQMNSLKPEDTAVYFCAARHGQSWQWLEYDYWGHGTQVTVSS | low polyreactivity
41 | QVQLVESGGGLVQAGGSLRLSCASSGSNTFINAMGWYRQAPGKERELVAAISGSGGSTYYADSVKGRFTISRDNAKNTVYLQMNFLKPEDTAVYYAARTGQYKTYGEYDYWGQGTQVTVSS | low polyreactivity
42 | QVQLVESGGGLVQAGGSLRLSCASSGSTFDINAMGWYTQAPGKARELVAAITCGGGTNYADSVKGRFTISRDNAKNTVYLEMNSLKPEDTAVYYCAAVYYSTDYYFWYDYWGQGTQVTVSS | low polyreactivity
43 | QVQLVESGGGLVQAGGSLRLSCASSGSTFDYYVMGWYRQEPGIVRELVASISSGGSTYYADSVKGRFTISRDNAKNTVYLQMNSLKPEDTAVYYCAARYYGRVGGYSIGYNYWGQGTQVTVSS | high polyreactivity
